# Results reported in patent US6013515, “Cofactors for HIV-1 protein Tat and methods of use therefor” (The Rockefeller University, dated 2000).
# B1: Tat-interacting protein 30 (TIP30), endogenous 30 kDa protein from HeLa extract (other)
# chain: AETEALSKLREDFRMQNKSVFILGASGETGRVLLKEILEQGLFSKVTLIGRRKLTFDEEAYKNVNQEVVDFEKLDDYASAFQGHDVGFCCLGTTRGKAGAEGFVRVDRDYVLKSAELAKAGGCKHFNLLSSKGADKSSNFLYLQVKGEVEAKVEELKFDRYSVFRPGVLLCDRQESRPGERLVRKFFGSLPDSWASGHSVPVVTVVRAMLNNVVRPRDKQMELLENKAIHDLGKAHGSLKP
# B2: TIP1 expressed in HeLa cells from pcDNA3.1TIP1 (other)
# chain: MAETEALSKLREDFRMQNKSVFILGASGETGRVLLKEILEQGLFSKVTLIGRRKLTFDEEAYKNVNQEVVDFEKLDDYASAFQGHDVGFCCLGTTRGKAGAEGFVRVDRDYVLKSAELAKAGGCKHFNLLSSKGADKSSNFLYLQVKGEVEAKVEELKFDRYSVFRPGVLLCDRQESRPGERLVRKFFGSLPDSWASGHSVPVVTVVRAMLNNVVRPRDKQMELLENKAIHDLGKAHGSLKP
# Experiments:
# [1] = molecular target: GST (glutathione S-transferase) control column (Schistosoma japonicum (Blood fluke), UniProt P08515 = GST); experiment: affinity chromatography of HeLa whole cell extract, SDS-PAGE, silver stain
# HIV-1 Tat = HIV-1 Tat (HIV-1, UniProt P04608); experiment: cell-based or functional assay
Binder,binding result [1],CAT expression from HIV-1 LTR-CAT reporter in cotransfected HeLa cells (HIV-1 Tat)
B1,no binding,
B2,,8.9 fold
